From the DeepSol protein solubility set

Experiment: soluble on expression in E. coli; label from the status in PepcDB or PDB records

Sequence	soluble on expression in E. coli
MDGDQVKGILKSGNNSAQFSLKAAKFDEVNILATFHPAGKDYGHMIIDEPKTPFVFEEDLPKELDTNALIEKLRHTSKSEMPAFGIEGDSEESSADEDFPESVEEKVRRMEFERRRKVHYKEFYSVPLARRLIADEFAELTSSEFNIHCEGGMESCEACSENNQLDGEASNLTQTKYSYSESQSEYRISDHSEPEPGFSPSHHCYQKLKAELFSKAEPEELASLTHLHRMPSVNDDEPSREPRVPYPSVVPTQTQNLHEHKSSLKITSEKPTPARICKSNPDNRPGTSKKETRLEHHHHHH	not soluble
MDHDKSKRLPPSYYTLLEASQEKETTSTKILAQYLDRSPATVRTQFQRIMEFLDVSSRYGALREAEKRGLIRRNKRATSAHHQENRSSL	not soluble
MDHTVLIALLLAFCSTASAVDSEGTDFVFAFVRNANPNITNQILSATVLNQNAQDCKFTLTYRPDYRKATSPENITVTVSANSAVEVPVLSWYGWNYANENLQDDVFLTLTGFSTCPVTVLANNYDNVTGQGDTYMVLPLTWGSTSLTFSLPPAVLSTDQQYEQIYVLPTTPGVTKVSVFEIGNAASVYTFNATFGNAPAAYIGARTPDARPRTYHVMSDKNVLVVAGVTCAGADANSCDHVAYMPHPPPSSDCYTYDYYDDDHVSYLPTTSQFFTDIPGTCSVGQNITRTLNDGVSYTITIKPQMESPLWSIKTTNANQLAVAFHNGGSNIHIARYYDGTKFNSRGAFAATSPSMTQFHNLNTPFFTRNANDTIEIYCTVLSCSSITIDGVKIQITDTKVVQKVDDISYYIFVNTIANPGYHQISLKQQGSYAFFVYGKNKLYSYGYEGGANKPTVVLAPPTTPGPTFYPVTTVSTMSPPTTVTVPTTPTPVPTTTNTPPANPTTATPTTVGTMTPSTGTTTVPVPTTTGSPTTQTTAPVTKPTVPSSTTQTAPPVTTPTSQPPVTTTSLLTTLTTPTVPVTTTVVPSSATVPTTPPTTVTVAATTTSKAPVVTTSPTLAPTSPTKLPTSPPSTVGTSPTAPANLTTPTTAPVNPTSSTTAPTAPVNPTSPTTAPTVPPVTTTTPTTTTSTTTTTTTTTTTTQTTPTTPVVTTPSTITPTTRPVTQPASQPATQPATTPTTTIPTTTQFSSAVSVALPVVLTMFFALF	not soluble
MDIGLEVENIPSVNITSLKEAPIHISSKIQPHGILLVLAEPDLKILQVTNNTLNVFGRSAEDMVQKRLVDLLDAYQLDRIKSGLSEQNLEFINPTKILVRNKGIA	not soluble
MDIHSHQQALDAYENVLEHLREKHIRITETRKAIISYMIQSTEHPSADKIYRDLQPNFPNMSLATVYNNLKVLVDEGFVSELKISNDLTTYYDFMGHQHVNVVCEICGKIADFMDVDVMDIAKEAHEQTGYKVTRIPVIAYGICPDCQAKDQPDF	not soluble
MDIPQDSYDLVVVGGGTSGVFAAISAARRGLRVALVEASGMLGGTLTQVTLGGICGAWTGTAHTQVVHGLFDEFVHAMRKAQACDGLYSYGHVTALPYEPVKVRYLLDQLLPPNVTAFFHSRLFAVDMEGERIARVHLAGVEGPFSLAARAYVDATGNASLVGLCATPLRRGENGTVQAASSMFRVIGADVDPRVRDVRTEIRLAIEKHNASGQAEAFKRSAVAVYVHPDQRLLHFNATRVYFESTADDALAAALDMSRVETEARKESFRLVELLKREVDGFANIEIVDLGSSVGVRDSRNIVNDHPLTEAMVRDGDKPANSVAYSAWPIEFHGSNTQTHWEPLEGDRYYGIPYESCLPQGIQNALVIGRAISSTPLAQASCRVTAPCIQMGESAGIAAHELVASSSRTAFSELASMKFILEHHHHHH	soluble
MDIQLVADGLQFPEGPIAMADGSVILTEIQGQRLTRVWPDGRKETVAETGGGPNGAAIGPDGAIYVTNNGGSFQFFEANGLNIPGPTPPTHTGGAIQRVDLKTGAITTLYTECDGKPLVGPNDLVFDKQGGFWFTDHGCSTPDGRKYGALYYALPDGSKITRWRDHFVSPNGVGLSPDEKTVYMADTMLGRLWSFDVASPGVLADAVPLLPGNVVCNLPGYQLLDSLAVEADGKVCVATIINGGITAFAPDGSTEHYAFPDVIVTNICFGGADMRDAWITASGTGKLYKARWPRPGLKLNFNGLEHHHHHH	soluble
MDIRELVHLGRYAVWNAFEGKEIKVPEALKEKYSRNMGVFTTLKTYPEHNLRGCIGVPLPVYPLWYATVYSSLQAAFQDPRFYPLKKEEFDKVLWEITLLTPPEELKVPKEELPEQIEIGKHGLIIEKGEQKGLLLPQVPVEYGWSPVEFLEYTCLKAGLPKDCWKDKETKVYVFSGEVYQEKEPFGEVERVNLKLEHHHHHH	soluble
MDKESVDTLFGMGLTAYQAKDYTKAIHALEHLREHDPSYTTLYSYLAKSYEENGEPEKAIAVLRDGLTQDEFNKEMFLEAGKLAVTLRLPEEAEEFYRQAIVLDEEFSEAIMQLNKLLLAKENYEGVIELVEGLGEEVISEPQIFWDVSVAYQETEQYNKAKANYELAYPHFTNNPTFLKEYGLFLREEGEHAKSQEVLRSYLELEPEDTEILSLFDLEHHHHHH	soluble
MDKPVDKPAKGKRPAAAGRGSKPRSASAERVRRHREKMKAMGLKPVTIWVPEDYNSPEYKAEIRRECELINADPESEIVLEGMWELADFGDWKA	not soluble
MDKSDMQRTVDSLRSQLNIERTPITVSAAELRRFTESQEDPLVNPIDKKVNPWAEKSKCSML	not soluble
MDLASLRAQQIELASSVICEDRLDKDPPDLIAGADVGFEQGGEVTRAAMVLLKYPSLELVEYKVARIATTMPYIPGFLSFREYPALLAAWEMLSQKPDLVFVDGHGISHPRRLGVASHFGLLVDVPTIGVAKKRLCGKFEPLSSKPGALAPLMDKGEQLAWVWRSKARCNPLFIATGHRVSVDSALAWVQRCMKGYRLPEPTRWADAVASERPAFVRYTANQPLEHHHHHH	not soluble
MDLQHWQAQFENWLKNHHQHQDAAHDVCHFRRVWATAQKLAADDDVDMLVILTACYFHDIVSLAKNHPQRQRSSILAAEETRRLLREEFEQFPAEKIEAVCHAIAAHSFSAQIAPLTTEAKIVQDADRLEALGAIGLARVFAVSGALGVALFDGEDPFAQHRPLDDKRYALDHFQTKLLKLPQTMQTARGKQLAQHNAHFLVEFMAKLSAELAGENEGVDHKVIDAFSSAGLEHHHHHH	soluble
MDLSSKPQQQLLNSLPIAGELTVTGEMGVCYKECLKNHAANLGGHALDGCGEFMPSPTATSTDPSSLRCAACGCHRNFHRRDPSENLNFLTAPPISSPSGTESPPSRHVSSPVPCSYYTSAPPHHVILSLSSGFPGPSDQDPTVVRSENSSRGAMRKRTRTKFTPEQKIKMRAFAEKAGWKINGCDEKSVREFCNEVGIERGVLKVWMHNNKYSLLNGKIREIEHGLCLNTHSNDGDGSSSS	soluble
MDLVDKRDVLIGDFRPSLGFYGGVRVGVYLDTTEPKHAKIKGFAMETLKRSSKVWLQELRSNLNIFWGTIESEISKNGAASYIFPLQRCIFSFLCASLAGVDASVSPDIAENGWKTINTWLALQVIPTAKLGVVPQPLEEILLHTWPYPSLLIAGNYKKLYNFIDENAGDCLRLGQEEFGLTRDEAIQNLLFVLGFNAYGGFSVFLPSLIGRITGDNSGLQERIRTEVRRVCGSGSDLNFKTVNEMELVKSVVYETLRFSPPVPLQFARARKDFQISSHDAVFEVKKGELLCGYQPLVMRDANVFDEPEEFKPDRYVGETGSELLNYLYWSNGPQTGTPSASNKQCAAKDIVTLTASLLVADLFLRYDTITGDSGSIKAVVKAK	soluble
MDNIQQEKLKNLIRSLEKSASPQEAEYLMGEILVPLLAEDGYSIQAVGDQRDFGVDFIARKDKHEEQFPEEIAIEYKHYRKAAVGLDVVHRVLGAAMSMGLSRAMVITNSRFTYAAREAIRRSSPVGVELLDIDALRSWIGRIEEVPSIDVVQVNIIRREFSRRLIELILKNPRYLDEIEWREMERLLAEVFEGLGFSVRLTPGSKDGGKDIILTCQVATKNHTYYVEVKHWRSGQRVGSGAITEFLNVIINEQIDGGLYLSTYGYCSNSIESLTEIQRKSLRFGTENKVVTLCQSYVKAMSGIWAPDKLLPEVLYDNTL	not soluble
MDNKLGLNKMNKTLIALAVSAAAVATGAYADGINQSGDKAGSTVYSAKGTSLEVGGRAEARLSLKDGKAQDNSRVRLNFLGKAEINDSLYGVGFYEGEFTTNDQGKNASNNSLDNRYTYAGIGGTYGEVTYGKNDGALGVITDFTDIMSYHGNTAAEKIAVADRVDNMLAYKGQFGDLGVKASYRFADRNAVDAMGNVVTETNAAKYSDNGEDGYSLSAIYTFGDTGFNVGAGYADQDDQNEYMLAASYRMENLYFAGLFTDGELAKDVDYTGYELAAGYKLGQAAFTATYNNAETAKETSADNFAIDATYYFKPNFRSYISYQFNLLDSDKVGKVASEDELAIGLRYDF	not soluble
MDNKLSKIPTETFGEYIKRIRELRGYSQRKLSTLSDLSNTTICRIEKGSENGIENPDAETVVKLAEGLKLEKKALLIAAGYLDNENVEETTDLKECIRIALQKLGWINSYNDINEETITYVEFLLKKYGNKYKQIP	not soluble
MDNQPYNPLHGLTLKTIVTELEAYFGFETLGKTIKIKCFTDDPSIQSTLKFLRKTPWAREKVEQLYIKNKIKIQNSFESGDLDLEHHHHHH	not soluble
MDNVTSSQLLSVRHQLAESAGLPRDQHEFVSSQAPQSLRNRYNNLYSHTQRTLDMADMQHRYMTGASGINPGMLPHENVDDMRSAITDWSDMREALQHAMGIHADIVDYKDDDDK	soluble
MDPGKKKQHICHIQGCGKVYGKTSHLRAHLRWHTGER	soluble
MDQDYERRLLRQIVIQNENTMPRVTEMRRTLTPASSPVSSPSKHGDRFIPSRAGANWSVNFHRINENEKSPSQNRKAKDATSDNGKDGLAYSALLKNELLGAGIEKVQDPQTEDRRLQPSTPEKKGLFTYSLSTKRSSPDDGNDVSPYSLSPVSNKSQKLLRSPRKPTRKISKIPFKVLDAPELQDDFYLNLVDWSSLNVLSVGLGTCVYLWSACTSQVTRLCDLSVEGDSVTSVGWSERGNLVAVGTHKGFVQIWDAAAGKKLSMLEGHTARVGALAWNAEQLSSGSRDRMILQRDIRTPPLQSERRLQGHRQEVCGLKWSTDHQLLASGGNDNKLLVWNHSSLSPVQQYTEHLAAVKAIAWSPHQHGLLASGGGTADRCIRFWNTLTGQPLQCIDTGSQVCNLAWSKHANELVSTHGYSQNQILVWKYPSLTQVAKLTGHSYRVLYLAMSPDGEAIVTGAGDETLRFWNVFSKTRSTKESVSVLNLFTRIR	soluble
MDQERARKRGITMGKQEFDGMSRISGLLTPELRATIEAVLAKLAAPGACNPDDQTPLVDDTPDADAVRRDTRSQAQRHHDGLLAGLRGLLASGELGQHRGLPVTVVVSTTLKELEAATGKGVTGGGSRVPMSDLIRMASNAHHYLALFDGAKPLALYHTKRLASPAQRIMLYAKDRGCSLEHHHHHH	soluble
MDQKTRIVAAVIKGVKLPPRFRLRLLKEDPVRLELSLTPAYGKDPVTVGLVESLDLVARRDREGRIPRDLQGTWDWTVRHGKVSTGGWNPYLKEALQTMFETGLPAIVFEELTGEEYHPVDGTRHVR	not soluble
